Test: label from the status in PepcDB records

Sequence	protein production
MKNILPLMWVIILMFVISQGVSAKGKKEIPKSEYGSYIVIMDLNPAIAYEGDIKGFKATKPGKNKKINPKSANVRKYTSMLSKTHDAALAKANVKSKDKVHDYGIALNGFSAKMTHEQAVALSSQDGVAKVMPDVLRQKMTDNSPSFLDLGGPAGPWLKGYDGEGIVIGVIDTGIWPEHPSFTDDGSYSTPPILLDDSRPNCEFGNTGHRPDDVAFSCNNKLIGARQMLDTYRLIVGATSDEFDSARDEDGHGTHTSSTSGGNANVPANMLGNDYGLISGIAPRAHIVMYKGLGDLGGFGSDLAAAIDQAVADGVDVINYSIGSSSFAIGPDDVAFLFAENAGVFVATSNGNSGPAPATTGSPASTPWVTSVGASTQNRTYQGSASSVGEWEFFGASITAGTAELALIDSAEAGSELCIPGVLDPVAVAGKIVLCLRGAIARVDKSKAVNIAGGAGMILYNANDGESQVTDSHWVPSVHINNTDGLVIKGYISNDASTAVAQIMGGTYTEIDAPSMAGFSSRGPNLLSGDIIKPDVTAPGVNIIAGQTPASEGRGELFQMISGTSMSSPHVAGLFAMIKQAHPNWSPSTAKSALMTTAYQDVMKEDEATPADAFDMGAGHVNPGGKANKGSIFEPGLAYQAGLFEYAAYSCGAELGIFSPGTCGFLESLGIPTDPANLNLPSIGIANVIGSKTVYRSVTGVAKDSGWRTYSVDVDAPAGYEVSVLPASIKLKSGMSATYAVTITNTASPAGEWAHGSITWRDSNDHYSVYSPIAVKGALFEAPANITGSSETGSASIDVTFGYTGDYTASGYGLTAATVDIDSVVQDPDQIFDPGDTFSNAHAIVVSGAAYLRIAIPGVADPNADLDIFLLDSVGNIVGVSANGGTDELIEMELPGDDTYTLWVHGWSAPGGSTDYELYSWVVPMASGSLTVASAPSSATLGATETIGVDWTGATNGKWHFGVIGHSDAGGLIGATLVEVDNR	failed
MERIEAGMSVMTLKKQTYRVIAVINQGQELLVRAHEPETADIEIIPVTTVVQVTEQNSTGDAAVALDTVTVVGERYVDDIVATLTTLRVGMAVLLQRESGNQYDDNAISVWTLQHAKLGYIARYQNQPYATLMDQGQRLYGIVTVLDQQKQHLELMLWRTTAVPSPIEALQIRQRLAKPRTNLGAVPTHSLQTPLGTIVMMCNGHPIKYQQVPLSPWLTPADELHVTKRYLLTPDWSQVPPDSLITCQVTAKADVVQRWQNEHISAAVLTNASSFYVVGISAQTKTGLNDNLVDDAAQPAVIYRVGQVSAHMQAGFMVSWAPFGDPRVQPALKLALHFSSQPLVPYHPVTPSRTNATFTQQELAALLVSALPNYQGGQRLEPSVTTITVEKLRQTLGDQTYHALANYQRHVQLVAGSTEGVNETLLQALIHAVTYHELTTMHYYQPTVGMVDQVIYPIQLFSTTTKDEDDAQLVGCLALYNYETFEIQQVPLTAIARIAIIADPEHPQTTPETESPDWLRIFLHGWNDDFLEHHHHHH	not failed
SEKPAGSLQEQALKRKERLKALRDRQLQGHAPADGEPERKRALEDTETEDRHRELKLRNYTPEDVELKERQVPKAKPASVDDKVKDQLEAANPEPVIEEVDLANLAPRKPDWDLKRDVAKKLEKLERRTQKAIAELIRERLKGSEEELAGAVGAVGVEEGDSD	failed
MIFERIKSEGLAHLSYFVGSGNEAIVIDPRRDCQIYFDIARREGMKIKYIFETHRNEDYVIGSLELKELTDAEIYHGKGVDFKYGIFVSDGQEFNFGSMKLTALHTPGHTDESMSYALTYPESGKAPLMVFTGDALFVGDVGRTDLYGPEEIPRMAANLYESIFNKILPLGDGVILCPAHGAGSLCGGAISKREYSTLGLERIQNPALQRTDKEEFIKFKLEEKLEFPPYFKKMEQYNLQGPPLLKGLPVPELLFPKEFVKEMEKGAMVVDTRMPHSFGGAHIKGSYGIWLKGLPYYAGWVLPYDKPILLVLEEKDQLETAVSYLVRIGYDSIAGFLNGGISSWYMKALPVESLNLISVQSLKDKIEKNEEMVILDVRRDEEWEKGHIEGARHVYVGHLEENLDKVPRNSPIIVYCDSSRRSNIAASILKKKGYDMVYNVLGSMTAWKNAGYKVVKLEHHHHHH	not failed
MRSNTFIQFAATLVAFVAACLFPAWSMAATHNVVLSAETLPNGQPAYKLLSHTSSNGTVPGYATEATIPGPTLFIKTGDKINVQLTNNTQSPVSFTAPGLSTGNSALAAPGQTKSYRLNARKAGTFAYHDEKAPMLGLFGAIVVDESNGHVQSYVDGDGTIVSTKRSQLSKEFVLFMVGSTFWGAEISRNGNQQPLWANPDLGAYQDDLLRFHVLAVGPGHTFHLHAHRWIEPGSSQKTPHIIDTHILDDLNNSHVFTIKAGTGVGPGVWQLHCHLISHMQSGMNSRIHVVARDSGQSADSIVGASPSGAIFLNDSDQPGLVTFIVSDEPAGWFRSARGDALSPVTHTKSLEIIPPGSSVHFVMSDTAGVHTITSLLWPSEAGHNDHGGDHFMIPFDETKAYRGGAILKLNVPGLYVFTCKIHPFMFAAVIVDDPATDGLDLGNTIDLISGVKNLPTSSDLATRLLHTFFVTTVPKNWQDFTSPNPWKIAYPDVDVVVDIGKVSLPAVLNARYGNDISLSPLPRPAVPGIGEVWVDTQFEKTAGKTKPGTITVVDTSNWTLKRKIALPQINMNNPHNMWPNRDHSIVYTTQWFDNKLTAIKQKTGKLASNVQVGDSPSHVMTLPNTDDITVAINGENDIVIIPAGTTKVNYALLTQSHGQAPGNPHGHWISADGKRIITPNINTHDAGFYDVEDGKIVARTATGEGQPGAHPIAIGMLPDSSKVYAANLLHHSVSVMDGDGNFIKNINLIEHYDPISGAINGPIGILPIQSPVSPDGKVMVTASYGGQIVVIDTRTDSIVKSLPCDPGCHGANFGAKKGGGYYAYITNKFSNRLIVVDPDPNGDGDLSDAEIAGAVTLVADSRVPKDDKISSLAGFGGQGIVALPNVYNGWVQNLNSQWSAGLTDQQRNPVQ	failed
MGDEALVVDPLRFIDVYEQVAQQEGVTITHIVDSHLHADHLSGGKALAERTGAAYYLMKSEGAVFDFEPLEQHETIDFENVHLEVLAVKTPGHTPGSVSFFVNGKWLFSGDTIFVGGLGRPDLGGKVAEWAEDLYHTVYEKVAAMADDVIVLPAHYANLDEEINAEGYVGDTLGRIRARNEMMQNKAKDEFIDLVIQGLEHHHHHH	failed
MSLKIIDFRLRPPAMGFLNARIYTRPDIRNRFTRQLGFEPAPSAEEKSLELMFEEMAAAGIEQGVCVGRNSSVLGSVSNADVAAVAKAYPDKFHPVGSIEAATRKEAMAQMQEILDLGIRIVNLEPGVWATPMHVDDRRLYPLYAFCEDNGIPVIMMTGGNAGPDITYTNPEHIDRVLGDFPDLTVVSSHGNWPWVQEIIHVAFRRPNLYLSPDMYLYNLPGHADFIQAANSFLADRMLFGTAYPMCPLKEYTEWFLTLPIKPDAMEKILHGNAERLLAQAGREGHHHHHH	not failed
MIWMAEIEGIYTIWLREMKRFFRYRSRIVTSIVTPLLWLIIFGTGLGAAVRFGGVPGGYKAFIYPGIIGQTVLFTSIFSGVSVIIDRQYGFLKEILVAPISRESMVVGKALGISTASMIQAAILLALSFIVGITMSPQCFIVSMVIALIISMGLGGLGLVIAAFTDSMEGFNLIMSFIVLPIFLLSGALFPITGLPAWLQGAVYINPLTYAVDALRFTILRRSVLPLEVNLLVITIFAVIAVLIAAFLFNRKEQNLM	failed
MQETMLDLRTVYECNRCLGCKTLHPQVGIINLENPSLEEDAVKFEFYAVLLIEDCPGGCCCCGRKYYDYSNATMVFLTPGEIFRMSKENTLPDKGYLLAFHPDLLFRTSLKNHIKNYTFFHYRKEEALHLSRRETEKVTCCLSNIEDELHHPIDTHSSIILSRHIELLLDYCTRYYERQFITRENKNKALLENMERLFVEYIASGRLQGGKLPTSGYMAGELDLSVAYFDDLLKFETGKTLEEYLQLKRLDIARHMLLQDGHTPAAVARKLGYPNVQCFSVLFKKITGVAPSDYRLSQN	not failed
MVTNQKHLEDFGYLKMTQKEGTILPEEYVSIIQHPKGGPKSVTLRENKVSGLKENFIHYLTDTEPGSSGSPVFNDQWTLVALHHSGVPNPEIKDLEHHHHHH	not failed
MHESMREIAERATFQSFANCYRREIDPGMPSQHRPECGDRRTYVEWSCPMAAATLRAEVERESLCGPFRFGRVFICRAPDNAWHEIAPLRALYLMVQECYSGIGAARAEALRNEEAELLGRVLASYQCIADSLQRSSGEAGRTFLDGEQSLMFGHWLHPTPKSRQGMADWQQPTYAPEHRGQFQLTYFAVDAALLRYGSAGDVSVSGILETLLPEADRPTLRPGEALIPLHPMQAEAVMLSPDIAELAREGRLRRLGPFGAEFSPTSSVRTVYSPAIPWMLKFSLPVRITNSLRINRMPELKAGVAMSRLFARTDFLARHPCFRLIRDPAYLTLGLPGRTESGFEIIFRENPFTTGNETKGITIAALTADPPPHARSRLDVLVREYAAQQGLPVASACRHWFSAYLDCALDPLVRLYNELGVALEAHQQNVLLDVSSGLPTASYYRDNQGFYLSNAHRDRLVSLVPETAEIGGLYFDDHVIQERFAYYLIVNQICSMIARMGQDRLIDEEALLIMLRERLNGLARELAGVGRDFASGIVDRPTVAAKANLLTRMLDIDELEAEDGRAIYVQLPNPLFGDRRSARRGEARAASR	failed
MAASLRSFLEQLKRQNSLYLVKKPVNPRFELGALLKKTKGTVPMFFQNIEGYDVPAVGGIVGTRENFAQALRINKSELLAKITEAITNPGETRLLPSGPVQENVLTKGFDIGKMFPIPTFHEKDSGAFITAGIVVAKDPIYGRRFTSIRRMQLNGPNNLSILIESPGLIEQYYEFERRGQAMEVAIVLGVHPAITLSSQLPTQTFGLDKYNVASRLIGEPLPVVKCKTIDLEVPADAEIVLEGRMLPYVRHPEGPFGELMGYYGPQTMQPVVEVTAVTFRNNPIFQVIFPSSYEHKLPNALMREVVLFNHVRHVVPTVQDVHLTMAGGGRCHAIISIKKTAEGQGKQAIFAALASNKDVKHVVVVNDDVDIFDPEDVEWAIATRVQADQDIIIIPGAQGTPLEPSHNLRGVSAKMGIDATYPLAEEERFARTQIPGYDQIRLEDYLTLDW	not failed
MVEAIIFDMDGVLFDTEKYYYDRRASFLGQKGISIDHLPPSFFIGGNTKQVWENILRDEYDKWDVSTLQEEYNTYKQNNPLPYKELIFPDVLKVLNEVKSQGLNIGLASSSVKADIFRALEENRLQAFFDIVLSGEEFKESKPNPEIYLTALKQLNVQASRALIIEDSEKGIAAGVAADVEVWAIRDNLFGMDQSAAKGLLDSLTDVLDLI	not failed
PVPATPILQLEECCTHNNSATLSWKQPPLSTVPADGYILELDDGNGGQFREVYVGKETMCTVDGLHFNSTYNARVKAFNKTGVSPYSKTLVLQTSEG	not failed
HALAERDRPLPTHLVLSGRMPPHTGYSPLLGAMDDNQLWQHVCSESLLPLPTDASCSFARHALGKLKADLALNAQLTYRFIRPLPVPLYVLNGQDDPLLELHRLDEWQRYTSTSFHSEYVPGGHFFFNINFQLLYLPLLTALD	failed
MTSSDLPVMLFAAGFGTRMGDLTRTRPKPLIEVAGRPLVDHTLDLARAVSPPRIVANLHYLAPLLAAHLAPQGVLLSHEQPDILDTGGGLRQALPLLAAETVFTANSDAIWSGPNPFALLAEAWEPARMDALLMCVPVGQAIGHAGHGDFSRDAQGRIERGPGLIYGGVQIVKTGGLGDFDMPAFSLNLLWNRIGAAGRLFALEYPGRWCDVGHPGGIALAEEMLRDVLEHHHHHH	not failed
MRFMFLHPRLSLEGDPLGLMQLSASLKQRGHIVGLTLLTEDYIEAIRSFQPDMLGVSLMSSDAVMMHQVLNKVRMVFPDLFIIVGGPHPTFDPSCLMVLPVNAICVGEGDEALVEALEQYGREGHVEGIRNVGTVTTPVTLRPLVSDLDDLPFIDRDIVYAKNHIVRDFPLKTFAASRGCHFKCTYCFNHAYNAMYAGLGHVVRRRSVDHLIAEMRDVIARYPTSYIKISDDSFTYRVDSWLEEFAEKYPRLIGLPFYCLLRADVVTRDMVRLLREAGCRSVCMSIEAGAETVRRDVLNRRVSNEKIIESFDLFNEAGIAIYTNSMLAMPRATLADDIATLDLNIRCRPTLGHFTIMAPFPGTRIHDMCEKDGILPERCGGDGDIPTSTGELSKLTTYTDEEKNIQKNIVLLGPLVIRFPVLRGVFLRCLAKLPSNNILFKCIYTVTKNLLFKRIVPVRMSPLLMLRIAIAQVKAARTQVG	failed

Source: a protein production outcome set (Wang et al. 2014)
